{
  "source": "patent US20160305947A1",
  "about": "(Merck Sharp & Dohme, published 2016)",
  "target": "T1, human PD-L1 (Programmed Cell Death 1 Ligand 1) (human, UniProt Q9NZQ7 19-290)",
  "T1 construct": "whole, on cells; The target is the endogenous protein in FFPE tumor tissue after antigen retrieval, not a recombinant construct; also called B7-H1; PDCD1L1",
  "T1 sequence (Q9NZQ7 19-290)": "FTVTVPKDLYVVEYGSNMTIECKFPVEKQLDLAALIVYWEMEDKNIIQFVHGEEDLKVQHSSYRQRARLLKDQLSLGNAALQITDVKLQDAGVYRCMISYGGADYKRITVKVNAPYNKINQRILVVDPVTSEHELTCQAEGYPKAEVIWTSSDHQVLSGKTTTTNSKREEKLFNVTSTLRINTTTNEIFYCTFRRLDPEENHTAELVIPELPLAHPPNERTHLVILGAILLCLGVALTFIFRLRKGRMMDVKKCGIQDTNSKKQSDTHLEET",
  "experiment": "IHC staining of FFPE human melanoma sections (chromogenic DAB and TSA fluorescence)",
  "experimental": "After deparaffinization, antigens were retrieved by immersing the slides into Flex TRS (high pH) and allowing the temperature inside the PT Link to reach 97° C. for 20 minutes. Once this time elapsed, the chamber temperature was cooled to 75° C. Slides were removed from the PT Link and cooled to room temperature in Flex wash buffer.\nSingle parameter chromogenic immunohistochemical staining was performed using a mouse monoclonal anti-PD-L1 antibody (clone 22C3) and the brown DAB chromogen (FIG. 1, left column) Multiparametric fluorescence immunohistochemistry was performed using the protocol detailed in Example 1. In brief, formalin-fixed paraffin-embedded sections were stained using an anti-PD1 antibody (polyclonal goat anti-hPD-1, green) and an anti-PD-L1 antibody (clone 22C3, red). Representative patterns of PD-1 and PD-L1 are depicted in the images in the right-hand column. […] PD-L1 can be identified as being either (1) spatially apart from PD-1+ T cells (A, right); (2) associated with a minimal PD-1+ infiltrate (B, right); (3) expressed in the absence of concomitant PD-1+ T cells (C, right); or (4) strongly expressed in tight spatial proximity to PD-1+CD8 T cells (D, right).",
  "data": [
    {"binder": "Mouse anti-human PD-L1 mAb (Clone 22C3) (antibody, mouse IgG1, kappa, V domains shown, Mouse IgG1, made in house, used at 2 ug/mL as the primary antibody in IHC; also called antibody 22C3; mouse monoclonal anti-PD-L1 antibody (clone 22C3)) VH: QVHLQQSGAELAKPGASVKMSCKASGYTFTSYWIHWIKQRPGQGLEWIGYINPSSGYHEYNQKFIDKATLTADRSSSTAYMHLTSLTSEDSAVYYCARSGWLIHGDYYFDFWGQGTTLTVSS VL: DIVMSQSPSSLAVSAGEKVTMTCKSSQSLLHTSTRKNYLAWYQQKPGQSPKLLIYWASTRESGVPDRFTGSGSGTDFTLTISSVQAEDLAVYYCKQSYDVVTFGAGTKLELKR", "values": [
      {"measurement": "binding result", "result": "binds"}
    ]}
  ]
}
